# Starred links: 1 amine or outer side, 2 acyl side, 3 side chain; linkers in the order of their positions; H or OH if unused. Non-standard residues stand in square brackets, D forms with d. *: point of attachment. Trp(7-F) = N[C@@H](Cc1c[nH]c2c(F)cccc12)C(=O)O; Trp(7-Me) = Cc1cccc2c(C[C@H](N)C(=O)O)c[nH]c12; d(γGlu) = O=C(O)[C@@H](CCC(=O)[*:2])N[*:1]; C18 diacid = O=C(O)CCCCCCCCCCCCCCCCC(=O)*; γGlu = O=C(O)[C@H](CCC(=O)[*:2])N[*:1]; 2Nal = N[C@@H](Cc1ccc2ccccc2c1)C(=O)O; Palmitoyl = CCCCCCCCCCCCCCCC(=O)*; Nle = CCCC[C@H](N)C(=O)O; AEEA = NCCOCCOCC(=O)O; Sar = CNCC(=O)O
# Target: human GRP receptor (human, UniProt P30550 1-384)
# Sequence (P30550 whole entry): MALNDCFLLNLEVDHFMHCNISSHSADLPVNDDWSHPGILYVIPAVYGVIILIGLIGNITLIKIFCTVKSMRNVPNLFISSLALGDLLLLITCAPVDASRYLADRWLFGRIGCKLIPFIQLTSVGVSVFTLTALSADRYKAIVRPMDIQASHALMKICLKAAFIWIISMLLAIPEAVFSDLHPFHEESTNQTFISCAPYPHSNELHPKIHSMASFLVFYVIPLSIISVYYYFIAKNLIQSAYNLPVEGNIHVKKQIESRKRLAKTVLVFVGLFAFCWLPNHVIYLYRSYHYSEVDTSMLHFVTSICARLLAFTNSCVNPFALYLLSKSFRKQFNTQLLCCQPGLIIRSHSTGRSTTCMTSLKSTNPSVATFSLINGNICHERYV
# Experiment: cell-based or functional assay
row,hIP1 GRPR EC50 [nM],Binder
1,232,{C18 diacid}-[γGlu][AEEA][AEEA]GNH[2Nal]AV[dA]HL[Nle]-NH2 (SMILES CCCC[C@H](NC(=O)[C@H](CC(C)C)NC(=O)[C@H](Cc1c[nH]cn1)NC(=O)[C@@H](C)NC(=O)[C@@H](NC(=O)[C@H](C)NC(=O)[C@H](Cc1ccc2ccccc2c1)NC(=O)[C@H](Cc1c[nH]cn1)NC(=O)[C@H](CC(N)=O)NC(=O)CNC(=O)COCCOCCNC(=O)COCCOCCNC(=O)CC[C@H](NC(=O)CCCCCCCCCCCCCCCCC(=O)O)C(=O)O)C(C)C)C(N)=O) [Peptide 105]
2,467,{C18 diacid}-[γGlu][AEEA][AEEA]GNHW[dA]V[dA]HL[Nle]-NH2 (SMILES CCCC[C@H](NC(=O)[C@H](CC(C)C)NC(=O)[C@H](Cc1c[nH]cn1)NC(=O)[C@@H](C)NC(=O)[C@@H](NC(=O)[C@@H](C)NC(=O)[C@H](Cc1c[nH]c2ccccc12)NC(=O)[C@H](Cc1c[nH]cn1)NC(=O)[C@H](CC(N)=O)NC(=O)CNC(=O)COCCOCCNC(=O)COCCOCCNC(=O)CC[C@H](NC(=O)CCCCCCCCCCCCCCCCC(=O)O)C(=O)O)C(C)C)C(N)=O) [Peptide 106]
3,221,{C18 diacid}-[γGlu][AEEA][AEEA]GNH[Trp(7-Me)]AV[dA]HL[Nle][Sar]-NH2 (SMILES CCCC[C@H](NC(=O)[C@H](CC(C)C)NC(=O)[C@H](Cc1c[nH]cn1)NC(=O)[C@@H](C)NC(=O)[C@@H](NC(=O)[C@H](C)NC(=O)[C@H](Cc1c[nH]c2c(C)cccc12)NC(=O)[C@H](Cc1c[nH]cn1)NC(=O)[C@H](CC(N)=O)NC(=O)CNC(=O)COCCOCCNC(=O)COCCOCCNC(=O)CC[C@H](NC(=O)CCCCCCCCCCCCCCCCC(=O)O)C(=O)O)C(C)C)C(=O)N(C)CC(N)=O) [Peptide 104]
4,> 10000,{C18 diacid}-[γGlu][AEEA][AEEA]GNHHAV[dA]HL[Nle]-NH2 (SMILES CCCC[C@H](NC(=O)[C@H](CC(C)C)NC(=O)[C@H](Cc1c[nH]cn1)NC(=O)[C@@H](C)NC(=O)[C@@H](NC(=O)[C@H](C)NC(=O)[C@H](Cc1c[nH]cn1)NC(=O)[C@H](Cc1c[nH]cn1)NC(=O)[C@H](CC(N)=O)NC(=O)CNC(=O)COCCOCCNC(=O)COCCOCCNC(=O)CC[C@H](NC(=O)CCCCCCCCCCCCCCCCC(=O)O)C(=O)O)C(C)C)C(N)=O) [Peptide 107]
5,> 10000,Palmitoyl-[γGlu][AEEA][AEEA]GNH[Trp(7-Me)]AV[dA]HL[Nle][Sar]-NH2 (SMILES CCCCCCCCCCCCCCCC(=O)N[C@@H](CCC(=O)NCCOCCOCC(=O)NCCOCCOCC(=O)NCC(=O)N[C@@H](CC(N)=O)C(=O)N[C@@H](Cc1c[nH]cn1)C(=O)N[C@@H](Cc1c[nH]c2c(C)cccc12)C(=O)N[C@@H](C)C(=O)N[C@H](C(=O)N[C@H](C)C(=O)N[C@@H](Cc1c[nH]cn1)C(=O)N[C@@H](CC(C)C)C(=O)N[C@@H](CCCC)C(=O)N(C)CC(N)=O)C(C)C)C(=O)O) [Peptide 112]
6,> 10000,{C18 diacid}-[γGlu][AEEA][AEEA]GNHRAV[dA]HL[Nle]-NH2 (SMILES CCCC[C@H](NC(=O)[C@H](CC(C)C)NC(=O)[C@H](Cc1c[nH]cn1)NC(=O)[C@@H](C)NC(=O)[C@@H](NC(=O)[C@H](C)NC(=O)[C@H](CCCNC(=N)N)NC(=O)[C@H](Cc1c[nH]cn1)NC(=O)[C@H](CC(N)=O)NC(=O)CNC(=O)COCCOCCNC(=O)COCCOCCNC(=O)CC[C@H](NC(=O)CCCCCCCCCCCCCCCCC(=O)O)C(=O)O)C(C)C)C(N)=O) [Peptide 108]
7,18.7,{C18 diacid}-[γGlu][AEEA][AEEA][AEEA][AEEA]GRH[Trp(7-F)]AV[dA]HL[Nle]-NH2 (SMILES CCCC[C@H](NC(=O)[C@H](CC(C)C)NC(=O)[C@H](Cc1c[nH]cn1)NC(=O)[C@@H](C)NC(=O)[C@@H](NC(=O)[C@H](C)NC(=O)[C@H](Cc1c[nH]c2c(F)cccc12)NC(=O)[C@H](Cc1c[nH]cn1)NC(=O)[C@H](CCCNC(=N)N)NC(=O)CNC(=O)COCCOCCNC(=O)COCCOCCNC(=O)COCCOCCNC(=O)COCCOCCNC(=O)CC[C@H](NC(=O)CCCCCCCCCCCCCCCCC(=O)O)C(=O)O)C(C)C)C(N)=O) [Peptide 109]
8,12.4,{C18 diacid}-[γGlu][AEEA][AEEA][AEEA][AEEA]GNH[Trp(7-F)]AV[dA]HL[Nle]-NH2 (SMILES CCCC[C@H](NC(=O)[C@H](CC(C)C)NC(=O)[C@H](Cc1c[nH]cn1)NC(=O)[C@@H](C)NC(=O)[C@@H](NC(=O)[C@H](C)NC(=O)[C@H](Cc1c[nH]c2c(F)cccc12)NC(=O)[C@H](Cc1c[nH]cn1)NC(=O)[C@H](CC(N)=O)NC(=O)CNC(=O)COCCOCCNC(=O)COCCOCCNC(=O)COCCOCCNC(=O)COCCOCCNC(=O)CC[C@H](NC(=O)CCCCCCCCCCCCCCCCC(=O)O)C(=O)O)C(C)C)C(N)=O) [Peptide 110]

# The remaining lines, values behind:
row,Binder,hIP1 GRPR EC50 [nM]
1,{C18 diacid}-[γGlu][AEEA][AEEA]RNHWAV[dA]HL[Nle][Sar]-NH2 (SMILES CCCC[C@H](NC(=O)[C@H](CC(C)C)NC(=O)[C@H](Cc1c[nH]cn1)NC(=O)[C@@H](C)NC(=O)[C@@H](NC(=O)[C@H](C)NC(=O)[C@H](Cc1c[nH]c2ccccc12)NC(=O)[C@H](Cc1c[nH]cn1)NC(=O)[C@H](CC(N)=O)NC(=O)[C@H](CCCNC(=N)N)NC(=O)COCCOCCNC(=O)COCCOCCNC(=O)CC[C@H](NC(=O)CCCCCCCCCCCCCCCCC(=O)O)C(=O)O)C(C)C)C(=O)N(C)CC(N)=O) [Peptide 100],99.9
2,{C18 diacid}-[γGlu][AEEA][AEEA][AEEA][AEEA]GNHWAV[dA]HL[Nle]-NH2 (SMILES CCCC[C@H](NC(=O)[C@H](CC(C)C)NC(=O)[C@H](Cc1c[nH]cn1)NC(=O)[C@@H](C)NC(=O)[C@@H](NC(=O)[C@H](C)NC(=O)[C@H](Cc1c[nH]c2ccccc12)NC(=O)[C@H](Cc1c[nH]cn1)NC(=O)[C@H](CC(N)=O)NC(=O)CNC(=O)COCCOCCNC(=O)COCCOCCNC(=O)COCCOCCNC(=O)COCCOCCNC(=O)CC[C@H](NC(=O)CCCCCCCCCCCCCCCCC(=O)O)C(=O)O)C(C)C)C(N)=O) [Peptide 98],11.2
3,{C18 diacid}-[γGlu][AEEA][AEEA]GNH[Trp(7-F)]AV[dA]HL[Nle][Sar]-NH2 (SMILES CCCC[C@H](NC(=O)[C@H](CC(C)C)NC(=O)[C@H](Cc1c[nH]cn1)NC(=O)[C@@H](C)NC(=O)[C@@H](NC(=O)[C@H](C)NC(=O)[C@H](Cc1c[nH]c2c(F)cccc12)NC(=O)[C@H](Cc1c[nH]cn1)NC(=O)[C@H](CC(N)=O)NC(=O)CNC(=O)COCCOCCNC(=O)COCCOCCNC(=O)CC[C@H](NC(=O)CCCCCCCCCCCCCCCCC(=O)O)C(=O)O)C(C)C)C(=O)N(C)CC(N)=O) [Peptide 102],181
4,EXXGNHWAVGHLM (Palmitoyl-D-γGlu-OEG-OEG-Gly-Asn-His-Trp-Ala-Val-Gly-His-Leu-Met-NH2) [Peptide 8],1.7
5,{C18 diacid}-[γGlu][AEEA][AEEA][AEEA][AEEA]GNH[Trp(7-Me)]AV[dA]HL[Nle][Sar]-NH2 (SMILES CCCC[C@H](NC(=O)[C@H](CC(C)C)NC(=O)[C@H](Cc1c[nH]cn1)NC(=O)[C@@H](C)NC(=O)[C@@H](NC(=O)[C@H](C)NC(=O)[C@H](Cc1c[nH]c2c(C)cccc12)NC(=O)[C@H](Cc1c[nH]cn1)NC(=O)[C@H](CC(N)=O)NC(=O)CNC(=O)COCCOCCNC(=O)COCCOCCNC(=O)COCCOCCNC(=O)COCCOCCNC(=O)CC[C@H](NC(=O)CCCCCCCCCCCCCCCCC(=O)O)C(=O)O)C(C)C)C(=O)N(C)CC(N)=O) [Peptide 103],345
6,{C18 diacid}-[γGlu][AEEA][AEEA][AEEA][AEEA]GNH[Trp(7-F)]AV[dA]HL[Nle][Sar]-NH2 (SMILES CCCC[C@H](NC(=O)[C@H](CC(C)C)NC(=O)[C@H](Cc1c[nH]cn1)NC(=O)[C@@H](C)NC(=O)[C@@H](NC(=O)[C@H](C)NC(=O)[C@H](Cc1c[nH]c2c(F)cccc12)NC(=O)[C@H](Cc1c[nH]cn1)NC(=O)[C@H](CC(N)=O)NC(=O)CNC(=O)COCCOCCNC(=O)COCCOCCNC(=O)COCCOCCNC(=O)COCCOCCNC(=O)CC[C@H](NC(=O)CCCCCCCCCCCCCCCCC(=O)O)C(=O)O)C(C)C)C(=O)N(C)CC(N)=O) [Peptide 101],352
7,{C18 diacid}-[γGlu][AEEA][AEEA]GNH[2Nal]AV[dA]HL[Nle][Sar]-NH2 (SMILES CCCC[C@H](NC(=O)[C@H](CC(C)C)NC(=O)[C@H](Cc1c[nH]cn1)NC(=O)[C@@H](C)NC(=O)[C@@H](NC(=O)[C@H](C)NC(=O)[C@H](Cc1ccc2ccccc2c1)NC(=O)[C@H](Cc1c[nH]cn1)NC(=O)[C@H](CC(N)=O)NC(=O)CNC(=O)COCCOCCNC(=O)COCCOCCNC(=O)CC[C@H](NC(=O)CCCCCCCCCCCCCCCCC(=O)O)C(=O)O)C(C)C)C(=O)N(C)CC(N)=O) [Peptide 99],> 10000
8,Palmitoyl-[d(γGlu)][AEEA][AEEA]GNHWAV[dA]HL[Nle]-NH2 (SMILES CCCCCCCCCCCCCCCC(=O)N[C@H](CCC(=O)NCCOCCOCC(=O)NCCOCCOCC(=O)NCC(=O)N[C@@H](CC(N)=O)C(=O)N[C@@H](Cc1c[nH]cn1)C(=O)N[C@@H](Cc1c[nH]c2ccccc12)C(=O)N[C@@H](C)C(=O)N[C@H](C(=O)N[C@H](C)C(=O)N[C@@H](Cc1c[nH]cn1)C(=O)N[C@@H](CC(C)C)C(=O)N[C@@H](CCCC)C(N)=O)C(C)C)C(=O)O) [Peptide 7],0.6
